# US6051217, “Therapeutic uses of interleukin-3 (IL-3) multiple mutation polypeptides” (G. D. Searle & Co., dated 2000)
# T1: hIL-3 receptor (human, UniProt P26951)
# T1 sequence: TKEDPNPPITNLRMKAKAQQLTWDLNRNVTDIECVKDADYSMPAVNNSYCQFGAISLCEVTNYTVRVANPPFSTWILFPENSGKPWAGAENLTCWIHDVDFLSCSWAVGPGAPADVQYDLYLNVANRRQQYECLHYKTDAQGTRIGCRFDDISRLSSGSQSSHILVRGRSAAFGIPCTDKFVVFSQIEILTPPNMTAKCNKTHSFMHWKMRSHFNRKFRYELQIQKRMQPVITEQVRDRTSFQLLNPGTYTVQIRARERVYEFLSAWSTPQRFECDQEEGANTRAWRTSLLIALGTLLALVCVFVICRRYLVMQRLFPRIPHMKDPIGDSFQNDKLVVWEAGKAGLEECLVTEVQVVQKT
# Target: T1, hIL-3 receptor
# Assay: cell-based or functional assay
row,Relative Biological Activity (AML 193 proliferation),Binder
1,26 EC50 (1-133)hIL-3 / EC50 mutant,pMON13287 polypeptide (ligand) MANCSIMIDEIIHHLKRPPAPLLDPNNLNAEDVDILMERNLRLPNLESFVRAVKNLENASGIEAILRNLQPCLPSATAAPSRHPIIIKAGDWQEFREKLTFYLVTLEQAQEQQ
2,24 EC50 (1-133)hIL-3 / EC50 mutant,pMON13288 polypeptide (ligand) MANCSIMIDEIIHHLKRPPNPLLDPNNLNSEDMDILMERNLRTPNLLAFVRAVKHLENASGIEAILRNLQPCLPSATAAPSRHPIIIKAGDWQEFREKLTFYLVTLEQAQEQQ
3,13 EC50 (1-133)hIL-3 / EC50 mutant,pMON13289 polypeptide (ligand) MANCSIMIDEIIHHLKVPPAPLLDSNNLNSEDMDILMERNLRLPNLLAFVRAVKNLENASGIEAILRNLQPCLPSATAAPSRHPIIIKAGDWQEFREKLTFYLVTLEQAQEQQ
4,20 EC50 (1-133)hIL-3 / EC50 mutant,pMON13290 polypeptide (ligand) MANCSIMIDEIIHHLKRPPAPLLDPNNLNAEDVDILMERNLRLPNLESFVRAVKNLENASGIEAILRNLVPCLPSATAAPSRHPITIKAGDWQEFREKLTFYLVTLEQAQEQQ
5,6 EC50 (1-133)hIL-3 / EC50 mutant,pMON13292 polypeptide (ligand) MANCSIMIDEIIHHLKVPPAPLLDSNNLNSEDMDILMERNLRLPNLLAFVRAVKNLENASGIEAILRNLVPCLPSATAAPSRHPITIKAGDWQEFREKLTFYLVTLEQAQEQQ
6,3 EC50 (1-133)hIL-3 / EC50 mutant,pMON13295 polypeptide (ligand) MANCSIMIDEIIHHLKVPPAPLLDSNNLNSEDMDILMERNLRLPNLLAFVRAVKNLENASGIEAILRNLVPCLPSATAAPSRHPITIKAGDWQEFREKLTFYLVSLEHAQEQQ
7,3 EC50 (1-133)hIL-3 / EC50 mutant,pMON13298 polypeptide (ligand) MANCSNMIDEIITHLKQPPLPLLDFNNLNGEDQDILMENNLRRPNLEAFNRAVKSLQNASGIEAILRNLQPCLPSATAAPSRHPIIIKAGDWQEFREKLTFYLVTLEQAQEQQ
8,2 EC50 (1-133)hIL-3 / EC50 mutant,pMON13299 polypeptide (ligand) MANCSNMIDEIITHLKQPPLPLLDFNNLNGEDQDILMENNLRRPNLEAFNRAVKSLQNASGIEAILRNLVPCLPSATAAPSRHPITIKAGDWQEFREKLTFYLVTLEQAQEQQ
9,3 EC50 (1-133)hIL-3 / EC50 mutant,pMON13300 polypeptide (ligand) MANCSNMIDEIITHLKQPPLPLLDFNNLNGEDQDILMENNLRRPNLEAFNRAVKSLQNASGIEAILRNLVPCLPSATAAPSRHPITIKAGDWQEFREKLTFYLVSLEHAQEQQ
10,3 EC50 (1-133)hIL-3 / EC50 mutant,pMON13294 polypeptide (ligand) MANCSIMIDEIIHHLKRPPNPLLDPNNLNSEDMDILMERNLRTPNLLAFVRAVKHLENASGIEAILRNLVPCLPSATAAPSRHPITIKAGDWQEFREKLTFYLVSLEHAQEQQ
11,2 EC50 (1-133)hIL-3 / EC50 mutant,pMON13301 polypeptide (ligand) MANCSIMIDEIIHHLKRPPAPLLDPNNLNAEDVDILMERNLRLPNLESFVRAVKNLENASAIESILKNLLPCLPLATAAPTRHPIHIKDGDWNEFRRKLTFYLKTLENAQAQQ
12,1.2 EC50 (1-133)hIL-3 / EC50 mutant,pMON13302 polypeptide (ligand) MANCSIMIDEIIHHLKRPPNPLLDPNNLNSEDMDILMERNLRTPNLLAFVRAVKHLENASAIESILKNLLPCLPLATAAPTRHPIHIKDGDWNEFRRKLTFYLKTLENAQAQQ
13,0.6 EC50 (1-133)hIL-3 / EC50 mutant,pMON13303 polypeptide (ligand) MANCSIMIDEIIHHLKVPPAPLLDSNNLNSEDMDILMERNLRLPNLLAFVRAVKNLENASAIESILKNLLPCLPLATAAPTRHPIHIKDGDWNEFRRKLTFYLKTLENAQAQQ
